Consider nine molecules from patent US20100249029A1 (Novo Nordisk, published 2010).

Where a chain is given by its changes, count along the chain named. Names may count otherwise.

Assay [1] has as its target T1, ECD-PRL-R, soluble extracellular domain of the prolactin receptor, Ser-PRLR(1-210) (human, UniProt P16471 25-234).
T1 construct: range 1-210
T1 sequence: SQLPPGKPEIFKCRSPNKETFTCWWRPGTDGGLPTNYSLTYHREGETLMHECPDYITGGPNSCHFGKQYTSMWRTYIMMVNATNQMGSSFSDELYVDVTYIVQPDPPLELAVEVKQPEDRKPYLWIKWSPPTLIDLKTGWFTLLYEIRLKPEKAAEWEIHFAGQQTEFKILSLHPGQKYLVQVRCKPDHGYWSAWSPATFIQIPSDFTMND
Kind of assay: HX-MS, 6 uM vPRL with or without 12 uM ECD-PRL-R. As to the method:
Amide hydrogen/deuterium exchange (HX) was initiated by a 10-fold dilution of vPRL in the presence or absence of ECD-PRL-R into a deuterated buffer (i.e. 20 mM Tris, 150 mM NaCl, 99% D₂O, pH 7.4 (uncorrected value)). Non-deuterated controls were prepared by dilution into an identical protiated buffer. All HX reactions were carried out at 30° C. and contained 6 μM vPRL variant in the absence or presence of 12 μM ECD-PRL-R. At appropriate time intervals, aliquots of the HX reaction were quenched by addition of an equal volume of ice-cold quenching buffer (1.25 M Tris(2-carboxyethyl)phosphine hydrochloride, adjusted to pH 2.0 using NaOH) resulting in a final pH of 2.5 (uncorrected value). Quenched samples were immediately frozen in liquid N₂ and stored at −80° C.
The samples were run on a cooled high pressure liquid chromatography-mass spectrometry system for rapid desalting and mass analysis as described (Rand et al. J. Biol. Chem. 281, 23018 (2006)).

Assay [2] concerns the target T2, Biotinylated prolactin receptor BirATag-Ser-PRLR (1-210) (human, UniProt P16471 25-234, biotinylated (BirA tag, biotin added during expression in E. coli)).
T2 construct: range 1-210; also called BirA-Ser-PRLR (1-210); not shown: BirA tag (biotin acceptor tag)
T2 sequence: T1 sequence
Kind of assay: SPR (Biacore); biotinylated BirATag-Ser-PRLR (1-210) amine-coupled to CM5 chip, variant injected at 3.13-50 nM; STDEV 0.56. As to the method: (§1) Biotinylated prolactin receptor BirATag-Ser-PRLR (1-210) was diluted to 20 μg/ml in 10 mM sodium acetate pH 4.0 (Biacore BR-1003-49) and immobilized on a CM5 chip (Biacore BR-1006-68) with the immobilization reagents 1-ethyl-3-(3-dimethylaminopropyl) carbodiimide hydrochloride (EDC), N-hydroxysuccinimide (NHS) and 1.0 M ethanolamine-HCl pH 8.5 (Biacore BR1000-50). The immobilization level was 1500 RU. The PRL variants prepared as described in Example 5 were diluted to a series of concentrations as following: 3.13/6.25/12.5/25/50 nM and run through the PRLR immobilized chip using HBS-EP (10 mM HEPES pH 7.4; 150 mM NaCl; 3 mM EDTA; 0.005% v/v Tween-20) as the running buffer under the following conditions: […]
On the technique in general: In SPR one partner is held on a chip, and binding of the other changes the refractive index at the surface.

The target of assay [3] is T2, Biotinylated prolactin receptor …. Kind of assay: SPR (Biacore); biotinylated BirATag-Ser-PRLR (1-210) amine-coupled to CM5 chip, variant injected at 3.13-50 nM; STDEV 0.028. How it is done: as §1
For assay [4] the target is unchanged. The experiment in a line: SPR (Biacore); biotinylated BirATag-Ser-PRLR (1-210) amine-coupled to CM5 chip, variant injected at 3.13-50 nM; STDEV 0.22. How it is done:
as §1

Assay [5] has the same target. The experiment in a line: SPR (Biacore); biotinylated BirATag-Ser-PRLR (1-210) amine-coupled to CM5 chip, variant injected at 3.13-50 nM; STDEV 0.11. How it is done:
as §1

Assay [6] has the same target. Kind of assay: SPR (Biacore); biotinylated BirATag-Ser-PRLR (1-210) amine-coupled to CM5 chip, variant injected at 3.13-50 nM; STDEV 0.0636. As to the method: as §1
Assay [7] has the same target. Kind of assay: SPR (Biacore); biotinylated BirATag-Ser-PRLR (1-210) amine-coupled to CM5 chip, variant injected at 3.13-50 nM; STDEV 0.2546. As to the method: as §1
Assay [8] has the same target. The experiment in a line: SPR (Biacore); biotinylated BirATag-Ser-PRLR (1-210) amine-coupled to CM5 chip, variant injected at 3.13-50 nM; STDEV 0.3606. As to the method: as §1
The target is the same in assay [9]. The experiment in a line: SPR (Biacore); biotinylated BirATag-Ser-PRLR (1-210) amine-coupled to CM5 chip, variant injected at 3.13-50 nM; STDEV 0.51. As to the method:
as §1

B1: vPRL: variant of PRL with amino acid residues 1-11 deleted and the mutations Q12S and G129R (ligand)
chain: SVTLRDLFDRAVVLSHYIHNLSSEMFSEFDKRYTHGRGFITKAINSCHTSSLATPEDKEQAQQMNQKDFLSLIVSILRSWNEPLYHLVTEVRGMQEAPEAILSKAVEIEEQTKRLLERMELIVSQVHPETKENEIYPVWSGLPSLQMADEESRLSAYYNLLHCLRRDSHKIDNYLKLLKCRIIHNNNC
Regarding B1, the binding result in assay [1] is “binds”.

B2: Ser-PRL D68N, G129R (ligand)
chain: SLPICPGGAARCQVTLRDLFDRAVVLSHYIHNLSSEMFSEFDKRYTHGRGFITKAINSCHTSSLATPENKEQAQQMNQKDFLSLIVSILRSWNEPLYHLVTEVRGMQEAPEAILSKAVEIEEQTKRLLERMELIVSQVHPETKENEIYPVWSGLPSLQMADEESRLSAYYNLLHCLRRDSHKIDNYLKLLKCRIIHNNNC
In general, Kd refers to the equilibrium constant for the complex coming apart. Lower therefore signals a tighter complex. B2: the Kd in assay [2] worked out at 4.9 nM.

B3: Ser-PRL S61A, G129R, K190R (ligand)
chain: B2 chain with S62A, N69D, K191R
Molecule B3 came in with a Kd in assay [3] of 2.4 nM.

B4: Ser-PRL D68N, G129R, K190R (ligand)
chain: B2 chain with K191R
For the molecule B4, binding in assay [4] was characterised by a dissociation constant (Kd) of 2.8 nM.

B5: Ser-PRL G129R, K190R (ligand)
chain: B2 chain with N69D, K191R
Molecule B5 gave an equilibrium dissociation constant (Kd) in [5] of 5.1 nM.

B6: Ser-PRL S38I, S61A, D68N, Q73L, G129R, K190R (ligand)
chain: B2 chain with S39I, S62A, Q74L, K191R
Regarding B6, in [6], the dissociation constant (Kd) was 0.3 nM.

B7: Ser-PRL N31E, G129R, K190R (ligand)
chain: B2 chain with N32E, N69D, K191R
For B7, in assay [7], the Kd worked out at 2.7 nM.

B8: Ser-PRL N31R, G129R, K190R (ligand)
chain: B2 chain with N32R, N69D, K191R
B8 yielded a Kd in [8] of 2.01 nM.

B9: Ser-PRL S33A, Q73L, M75T, N76S, F80L, G129R, K190R (ligand)
chain: B2 chain with S34A, N69D, Q74L, M76T, N77S, F81L, K191R
Molecule B9 gave a Kd in assay [9] of 3.3 nM.
